From article PMC2837404, “The Human Polyoma JC Virus Agnoprotein Acts as a Viroporin” (PLoS Pathogens, 2010)
Where “and” joins values, the source holds several entries; their conditions need not be identical. Equal values may be shown once.

Target: the molecule itself
Assay: cross-linking; SVG-A cells infected with JCV for 1 week, reacted as whole cells with 0.5, 1, 2 or 5 mM DSS (or DMSO) for 2 h at 4°C in DPBS (+), quenched with 50 mM Tris pH 7.5, lysed in 1% Triton X-100; SDS-PAGE and immunoblot with anti-agnoprotein antibody

B1: JCV agnoprotein expressed in JCV-infected SVG-A cells (natural protein)
chain: MVLRQLSRKASVKVSKTWSGTKKRAQRILIFLLEFLLDFCTGEDSVDGKKRQRHSGLTEQTYSALPEPKAT
notes: JC virus (JCV) agnoprotein made from the viral genome in infected cells; monomer about 8 kDa; The virus was prepared from JCI cells or JC virus-infected SVG-A cells; source: SVG-A cells infected with JCV for 1 week
Question: Which “stoichiometry N” value does the source give for B1 here?
Answer: 2 and 3 and 4 and 5
